Measured values from patent publication US20120034160A1 (AbbVie / Abbott, published 2012).
Residue numbers refer to the chain shown, from its start.

T1: Recombinant Human IL-17 (human, UniProt Q16552 20-155, limits assumed)
T1 sequence (looked up): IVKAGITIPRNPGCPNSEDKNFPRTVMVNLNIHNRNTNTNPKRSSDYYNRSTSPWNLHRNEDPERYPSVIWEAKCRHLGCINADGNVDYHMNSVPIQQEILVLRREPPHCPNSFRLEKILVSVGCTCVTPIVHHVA

B1: DVD1262 (bispecific antibody, human IgG1, kappa)
heavy: not shown
light: DIQMTQSPSSLSASVGDRVTITCRASGNIHNYLTWYQQTPGKAPKLLIYNAKTLADGVPSRFSGSGSGTDYTFTISSLQPEDIATYYCQHFWSIPYTFGQGTKLQITRTVAAPDIQMTQSPSSLSASVGDRVTITCRASSGIISYIDWFQQKPGKAPKRLIYATFDLASGVPSRFSGSGSGTDYTLTISSLQPEDFATYYCRQVGSYPETFGQGTKLEIKRTVAAPSVFIFPPSDEQLKSGTASVVCLLNNFYPREAKVQWKVDNALQSGNSQESVTEQDSKDSTYSLSSTLTLSKADYEKHKVYACEVTHQGLSSPVTKSFNRGEC
B2: DVD1263 (bispecific antibody, human IgG1, kappa)
heavy: not shown
light: DIQMTQSPSSLSASVGDRVTITCRASSGIISYIDWFQQKPGKAPKRLIYATFDLASGVPSRFSGSGSGTDYTLTISSLQPEDFATYYCRQVGSYPETFGQGTKLEIKRTVAAPDIQMTQSPSSLSASVGDRVTITCRASGNIHNYLTWYQQTPGKAPKLLIYNAKTLADGVPSRFSGSGSGTDYTFTISSLQPEDIATYYCQHFWSIPYTFGQGTKLQITRTVAAPSVFIFPPSDEQLKSGTASVVCLLNNFYPREAKVQWKVDNALQSGNSQESVTEQDSKDSTYSLSSTLTLSKADYEKHKVYACEVTHQGLSSPVTKSFNRGEC
B3: DVD1264 (bispecific antibody, human IgG1, kappa)
heavy: not shown
light: B1 light
B4: DVD1265 (bispecific antibody, human IgG1, kappa)
heavy: not shown
light: B2 light
B5: DVD1266 (bispecific antibody, human IgG1, kappa)
heavy: not shown
light: DTQVTQSPSSLSASVGDRVTITCITSTDIDVDMNWYQQKPGKPPKLLISQGNTLRPGVPSRFSSSGSGTDFTFTISSLQPEDFATYYCLQSDNLPLTFGQGTKLEIKRTVAAPDIQMTQSPSSLSASVGDRVTITCRASSGIISYIDWFQQKPGKAPKRLIYATFDLASGVPSRFSGSGSGTDYTLTISSLQPEDFATYYCRQVGSYPETFGQGTKLEIKRTVAAPSVFIFPPSDEQLKSGTASVVCLLNNFYPREAKVQWKVDNALQSGNSQESVTEQDSKDSTYSLSSTLTLSKADYEKHKVYACEVTHQGLSSPVTKSFNRGEC
B6: DVD1267 (bispecific antibody, human IgG1, kappa)
heavy: not shown
light: DIQMTQSPSSLSASVGDRVTITCRASSGIISYIDWFQQKPGKAPKRLIYATFDLASGVPSRFSGSGSGTDYTLTISSLQPEDFATYYCRQVGSYPETFGQGTKLEIKRTVAAPDTQVTQSPSSLSASVGDRVTITCITSTDIDVDMNWYQQKPGKPPKLLISQGNTLRPGVPSRFSSSGSGTDFTFTISSLQPEDFATYYCLQSDNLPLTFGQGTKLEIKRTVAAPSVFIFPPSDEQLKSGTASVVCLLNNFYPREAKVQWKVDNALQSGNSQESVTEQDSKDSTYSLSSTLTLSKADYEKHKVYACEVTHQGLSSPVTKSFNRGEC
B7: DVD1268 (bispecific antibody, human IgG1, kappa)
heavy: not shown
light: DTVVTQSPAFLSVTPGEKVTITCITSTDIDVDMNWYQQKPDQPPKLLISQGNTLRPGVPSRFSSSGSGTDFTFTISSLEAEDAATYYCLQSDNLPLTFGQGTKLEIKRTVAAPDIQMTQSPSSLSASVGDRVTITCRASSGIISYIDWFQQKPGKAPKRLIYATFDLASGVPSRFSGSGSGTDYTLTISSLQPEDFATYYCRQVGSYPETFGQGTKLEIKRTVAAPSVFIFPPSDEQLKSGTASVVCLLNNFYPREAKVQWKVDNALQSGNSQESVTEQDSKDSTYSLSSTLTLSKADYEKHKVYACEVTHQGLSSPVTKSFNRGEC
B8: DVD1269 (bispecific antibody, human IgG1, kappa)
heavy: not shown
light: DIQMTQSPSSLSASVGDRVTITCRASSGIISYIDWFQQKPGKAPKRLIYATFDLASGVPSRFSGSGSGTDYTLTISSLQPEDFATYYCRQVGSYPETFGQGTKLEIKRTVAAPDTVVTQSPAFLSVTPGEKVTITCITSTDIDVDMNWYQQKPDQPPKLLISQGNTLRPGVPSRFSSSGSGTDFTFTISSLEAEDAATYYCLQSDNLPLTFGQGTKLEIKRTVAAPSVFIFPPSDEQLKSGTASVVCLLNNFYPREAKVQWKVDNALQSGNSQESVTEQDSKDSTYSLSSTLTLSKADYEKHKVYACEVTHQGLSSPVTKSFNRGEC
B9: DVD1270 (bispecific antibody, human IgG1, kappa)
heavy: not shown
light: B5 light with D1E, Q3T
B10: DVD1271 (bispecific antibody, human IgG1, kappa)
heavy: not shown
light: B6 light with D114E, Q116T
B11: DVD1272 (bispecific antibody, human IgG1, kappa)
heavy: not shown
light: DIQMTQSPSSLSASVGDRVTITCRASGNIHNYLTWYQQTPGKAPKLLIYNAKTLADGVPSRFSGSGSGTDYTFTISSLQPEDIATYYCQHFWSIPYTFGQGTKLQITRTVAAPEIVLTQSPDFQSVTPKEKVTITCRASQDIGSELHWYQQKPDQPPKLLIKYASHSTSGVPSRFSGSGSGTDFTLTINGLEAEDAGTYYCHQTDSLPYTFGPGTKVDIKRTVAAPSVFIFPPSDEQLKSGTASVVCLLNNFYPREAKVQWKVDNALQSGNSQESVTEQDSKDSTYSLSSTLTLSKADYEKHKVYACEVTHQGLSSPVTKSFNRGEC
B12: DVD1273 (bispecific antibody, human IgG1, kappa)
heavy: not shown
light: EIVLTQSPDFQSVTPKEKVTITCRASQDIGSELHWYQQKPDQPPKLLIKYASHSTSGVPSRFSGSGSGTDFTLTINGLEAEDAGTYYCHQTDSLPYTFGPGTKVDIKRTVAAPDIQMTQSPSSLSASVGDRVTITCRASGNIHNYLTWYQQTPGKAPKLLIYNAKTLADGVPSRFSGSGSGTDYTFTISSLQPEDIATYYCQHFWSIPYTFGQGTKLQITRTVAAPSVFIFPPSDEQLKSGTASVVCLLNNFYPREAKVQWKVDNALQSGNSQESVTEQDSKDSTYSLSSTLTLSKADYEKHKVYACEVTHQGLSSPVTKSFNRGEC
B13: AB273 (antibody, human IgG1, kappa, V domains shown)
VH: EVQLVQSGAEVKKPGSSVKVSCKASGYTFTDYEIHWVRQAPGQGLEWMGVNDPESGGTFYNQKFDGRVTLTADESTSTAYMELSSLRSEDTAVYYCTRYSKWDSFDGMDYWGQGTTVTVSS
VL: DIQMTQSPSSLSASVGDRVTITCRASSGIISYIDWFQQKPGKAPKRLIYATFDLASGVPSRFSGSGSGTDYTLTISSLQPEDFATYYCRQVGSYPETFGQGTKLEIKR
B14: DVD1290 (bispecific antibody, human IgG1, kappa)
heavy: not shown
light: ETTVTQSPSSLSASVGDRVTITCITSTDIDVDMNWYQQKPGKPPKLLISQGNTLRPGVPSRFSSSGSGTDFTFTISSLQPEDFATYYCLQSDNLPLTFGQGTKLEIKRTVAAPEIVLTQSPDFQSVTPKEKVTITCRASQNIGSELHWYQQKPDQSPKLLIKYASHSISGVPSRFSGSGSGTDFTLTINGLEAEDAATYYCHQSDTLPHTFGQGTKVDIKRTVAAPSVFIFPPSDEQLKSGTASVVCLLNNFYPREAKVQWKVDNALQSGNSQESVTEQDSKDSTYSLSSTLTLSKADYEKHKVYACEVTHQGLSSPVTKSFNRGEC
notes: DVD-Ig, outer AB272, inner AB275, linker set 1; V1 wt hIgG1, V2 kappa; also called DVD1290H; DVD1290L

Molecular target: Recombinant Human IL-1β (human, UniProt P01584 117-269)
Experiment: cell-based or functional assay

Binder	N-Terminal VD IL-1β Neutralization Assay EC50 [nM]	C-Terminal VD IL-1β Neutralization Assay EC50 [nM]
B1	0.0164	
B2		20
B3	0.12	
B4		0.925
B5	0.327	
B6		> 40
B7	0.146	
B8		> 45
B9	0.265	
B10		> 30
B11	0.0139	
B12		18.4

Molecular target: T1, Recombinant Human IL-17
Experiment: cell-based or functional assay

Binder	C-terminal VD IL-17 Neutralization Assay EC50 [nM]	N-terminal VD IL-17 Neutralization Assay EC50 [nM]	IL-17 Neutralization Assay EC50 [nM]
B1	0.0162		
B2		0.0052	
B3	0.0084		
B4		0.0028	
B5	0.015		
B6		0.0109	
B7	0.0034		
B8		0.0082	
B9	0.0407		
B10		0.0109	
B11	0.346		
B12		0.0013	
B13			0.0161

Molecular target: T2, Recombinant Human IL-1β (human, UniProt P01584 117-269)
T2 construct: bought reagent; also called IL-1B
Experiment: Biacore SPR; N-terminal VD
Summary of the method: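 SPR, 25° C, HBS-EP (10 mM HEPES pH 7.4, 150 mM NaCl, 3 mM EDTA, 0.005% P20). Capture via anti-mouse IgG Fcγ chip; analyte 10−200 nM at 25 μl/min. 1:1 Langmuir global fit; KD = koff/kon.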

Binder	Kd [nM]	koff [s⁻¹]	kon [M⁻¹ s⁻¹]
B14	0.086	0.00065	7.5e+06
